These results are taken from patent US11453711B2, “Fusion proteins of GLP-1 and GDF15 and conjugates thereof” (BEIJING QL BIOPHARMACEUTICAL CO., LTD., priority 2019, dated 2022).

Assay [1] in a line: Efficacy in DIO mice, daily sc 28 days. In kind it is in vivo, DIO male C57BL/6 mice. As to the method: FIGS. 6A-6E show In vivo efficacy in DIO mice. To evaluate the body weight, food intake and glucose effects of the fusion proteins, 17 week old DIO mice (C57BL/6 mice on high fat diet for 13 weeks) were dosed everyday subcutaneously with different concentrations of proteins for 28 days. […] FIGS. 6D and 6E show body weight change with dose titrations of MLC089 and MLC093 at 3, 10 and 30 nmol/kg. Data are expressed as mean values and standard error (SEM) for FIGS. 6A, 6C, 6D and 6E. n=5 for each treatment group. For FIG. 6B, a pooled food intake was measured for each treatment group.
(§1) 17 week old DIO male C57BL/6 mice (˜45 g) were injected everyday subcutaneously with designated proteins (i.e., MLC089, MLC093) for 28 days. Food intake and body weight were measured daily and five animals were used for each treatment group. Fasting glucose was also monitored on designated days. Body weight and glucose were monitored for each individual animal, but food intake for each group animals was measured together. Day 1 and Day 28 are first day and last day of molecule dosage. % BW loss=100*(BW on Day n-BW on Day 1)/(BW on Day 1). Cumulative food intake on Day n represents sum of food intake from Day 1 to Day n. Terminal blood was collected and EDTA-2K plasma was prepared and frozen at −80 C for biomarker measurement. Liver was also collected and frozen in liquid nitrogen and store at −80 C. Data are indicated as mean values and standard error (SEM) or pooled values.

Assay [2] in a line: Separate DIO mice study with inactivated control molecules, daily sc 22 days. Format: in vivo, DIO mice (C57BL/6 mice on high fat diet). As to the method:
FIGS. 9A-9G show In vivo efficacy in DIO mice. To evaluate the body weight, food intake and glucose effects of the fusion proteins, 17 week old DIO mice (C57BL/6 mice on high fat diet for 13 weeks) were dosed everyday subcutaneously with different concentrations of proteins for 22 days. […] Data are expressed as mean values and standard error (SEM) for FIGS. 9A and 9C-G. n=5 for each treatment group. For FIG. 9B, a pooled food intake was measured for each treatment group.
as §1

Assay [3] can be described thus: Body weight and food intake in C57BL/6 mice, fusion protein conjugates, 30 nmol/kg daily 10 days. Format: in vivo. The method, boiled down: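 Male C57BL/6 mice received fusion protein conjugates by daily subcutaneous injection, with dosing running from Day 1 to Day 10. Body weight was recorded daily per animal and food intake daily per group. Body weight reduction was expressed relative to vehicle percent loss from Day 1. Cumulative food intake reduction was expressed as percent decrease versus vehicle.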

B1: MLC093: fusion polypeptide SEQ ID NO: 381 conjugated with Moiety B at 33C of Linker (conjugate)
chain: HGEGTFTSDVSSYLEEQAAKEFIAWLVRGGGGAQPGAQPGAQPGAQPGAQPGAQPGAQPGAQPCQEPGAQPGQEPGAQPGQEPGAQPGQEPGAQPGQEPGAQPGQEPGAQPARQGDHCPLGPGRCCRLHTVRASLEDLGWADWVLSPREVQVTMCIGACPSQFRAANLHAQIKTSLHRLKPDTVPAPCCVPASYNPMVLIQKTDTGVSLQTYDDLLAKDCHCI
modifications: Moiety B conjugated at linker Cys33
Turning to B1, the “body weight reduction efficacy” value in assay [1] (DIO mice, 30 nmol/kg daily 28 days, FIG. 6A) is “much better body weight reduction efficacy than Semaglutide and GDF15 derivative (MLC014)”. Besides, the “dose dependence of body weight reduction” value in assay [1] (DIO mice, 3, 10 and 30 nmol/kg, FIGS. 6D and 6E) is recorded as “dose dependent efficacy on body weight reduction”. In addition, in assay [1] (DIO mice, FIG. 6C), the fasting glucose entry is “reached similar level to Semaglutide”. Also, the efficacy result in assay [1] (DIO study, FIG. 6) was “better efficacy than Semaglutide and GDF15 derivative (MLC014)”; in assay [2] (separate DIO study, FIG. 9A-9G, versus MLC114 and MLC113) it was “better efficacy than corresponding control molecules having inactivated GLP-1 or GDF15 mutants”. Moreover, the liver triglyceride contents result in assay [2] (Day 22, FIG. 9G, relative to vehicle or MLC114 and MLC113) is listed as “reduction of liver triglyceride contents”. For the same molecule, the body weight reduction result in assay [2] (separate DIO study, FIG. 9A, versus MLC114 and MLC113) is “better body weight reduction, food intake suppression and glucose control”. In assay [2] (separate DIO study, FIG. 9B, versus MLC114 and MLC113), the food intake suppression entry was “better body weight reduction, food intake suppression and glucose control”. For the same molecule, the glucose control entry in assay [2] (separate DIO study, FIG. 9C, versus MLC114 and MLC113) is “better body weight reduction, food intake suppression and glucose control”. The plasma triglyceride level result in assay [2] (terminal plasma Day 22, FIG. 9D, relative to vehicle or MLC114 and MLC113) was “therapeutic efficacy in reducing plasma triglyceride, cholesterol and insulin levels”. Moreover, the plasma cholesterol level entry in assay [2] (terminal plasma Day 22, FIG. 9E, relative to vehicle or MLC114 and MLC113) was “therapeutic efficacy in reducing plasma triglyceride, cholesterol and insulin levels”. In addition, in assay [2] (terminal plasma Day 22, FIG. 9F, relative to vehicle or MLC114 and MLC113), the plasma insulin level entry is “therapeutic efficacy in reducing plasma triglyceride, cholesterol and insulin levels”. The “Body weight reduction at 30 nmol/kg (% reduction compared to vehicle)(Day11)” value in assay [3] is 26.2%. Further, the “Cumulative food intake reduction at 30 nmol/kg (% reduction compared to vehicle)(Day11)” value in assay [3] is reported as 43.8%.
